Molecular target: T1, Lumio-Green-labelled RFXV-motif-possessing peptide derived from WNK4 (EP4543) (not fully specified; Lumio Green fluorophore conjugated to the N-terminal linker CCPGCCGGGG)
T1 construct: N-terminal linker required for conjugating to the Lumio Green fluorophore; stretch of WNK4 with the RFQV motif; also called WNK peptide; RFXV peptide; source: synthetic peptide (GL Biochem)
T1 peptide: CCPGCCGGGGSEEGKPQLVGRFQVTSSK
Assay: fluorescence polarisation; SPAK protein titrated against 10 nM Lumio-Green-labelled peptide; 25°C; 50 mM Tris-HCl pH 7.5, 150 mM NaCl, 2 mM DTT; one-site-specific binding model
Conditions: both partners purified

B1: human SPAK 452-547 with L491A (domain or fragment)
chain: not shown
notes: SPAK, human, residues 452-547 (end), the CCT domain, L491A; pGEX-6P-1 construct; GST-SPAK proteins were eluted with 20 mM glutathione and no cleavage of GST is described, so GST was probably still on the protein; also called SPAK CCT domain L491A (equivalent to L502 in mouse); source: E. coli BL21, purified (glutathione-Sepharose)
In the case of B1, the “fold reduction of binding against wild-type SPAK 452-547” value is reported as ~100 fold.
